Patent publication US20060110777A1 (Genentech, published 2006)
Values joined by “and” are separate entries in the source; they are usually repeats but may differ in a detail not shown here. Identical values can stand only once. Blank lines part the entries; values can stand above or below the binder they belong to. Positions of bridges follow the written chain, without caps; N, C: chain ends. No end group written: not given here.

Target: T1, BAFF (UniProt Q9Y275 134-285, limits assumed)
T1 construct: Coated on ELISA plates at 2 ug/ml; The construct is not described; also called BLyS; TALL-1
Assay: competitive displacement ELISA, BAFF coated, biotinylated miniBR3 as tracer
Method: FIGS. 16A-16B depict binding of BR3 variants to BAFF. (A) Competitive displacement of biotinylated miniBR3 measured by ELISA (see methods). Data are shown for BR3 extracellular domain (filled triangles), miniBR3 (open squares), and bhpBR3 (filled circles). IC₅₀ values from the fitted curves are 70 nM, 65 nM, and 15 μM, respectively. (B) HeLa cells expressing a chimeric receptor composed of the extracellular ligand-binding domain of BR3 fused to the death domain of DR4 were seeded 16 hr before treatment. BAFF (2 nM) was added to cells alone or after being preincubated with miniBR3 (3 μM), bhpBR3 (100 μM) or a control hairpin peptide with an unrelated turn sequence in the same bhp scaffold (bhpC, 100 μM) for 30 min at room temperature. Apoptosis was assessed 24 hr later. […]
Nunc Maxisorp 96-well plates were coated overnight at 4° C. with 100 μl of a 2 μg/ml solution of BAFF in carbonate buffer, pH 9.6. […] The reaction was quenched with 100 μl/well 1M H₃PO₄ and the plate read at 490 nm. IC₅₀ values were determined by a four-parameter fit of the competitive displacement ELISA signal. The concentrations of initial stock solutions of bhpBR3 were determined spectrophotometrically as described (Gill and von Hippel, (1989) Anal. Biochem. 182:319-326), while those of miniBR3 and BR3 extracellular domain were determined by quantitative amino acid analysis.

- IC50: 65 nM and ~70 nM
B1: miniBR3 (peptide)
peptide: TPCVPAECFDLLVRHCVACGLLRTPR-NH2
modifications: disulfide 3-16, 8-19
notes: Synthetic peptide with the 1:3, 2:4 disulfide-bonding pattern; also called 26-residue miniBR3 peptide; the larger core domain

- IC50: 15000 nM
B2: bhpBR3 (peptide)
peptide: CHWDLLVRHWVC-NH2
modifications: disulfide 1-12 (inferred)
notes: BR3 residues 26-31 (DLLVRH) embedded in the disulfide-bonded beta-hairpin (bhp) scaffold; also called the 12-residue peptide; turn peptide bhpBR3
